In the DeepSol protein solubility set:

assay: soluble on expression in E. coli; label from the status in PepcDB or PDB records

With “MAHHHHHHMNCSSTLACHAVVSAPSTASLITSCWTPQQHCYRQLMKSLRAAYFHDRSKLFWSRHRVLVEFYKYSEEANEEAVKQLVAIGLEVAAFIDHHMRTDVERIVKHNETMMALPVAQAKKFRSDYLLAEKQHDSWCKQKIKNIMKRRPPPPYPFF” as the sequence, how does the “soluble on expression in E. coli” value read?
The value was “not soluble”.

With “MGSLKIYPSKLSGDVKIPPSKSMAHRAVICSSLSNGKSRISNIDFSDDIIATIRAMTSLGAIIEKKEDILEISGIFSKEGILNRENQLNQPKLTIDCNESGSTLRFLVPISLAFDGVKRFIGRGNLGKRPLDTYYEIFDRQNIKYSYKENQLDLIISGKLKPDEFRVKGNISSQFITGLLFILPTLESDSKIIITTELESKGYLDLTLSTIKDFGVEIINNNYKEFIIKGNQTYKARDYKVEGDYSQGAFYLSADAIGEDISILDLKEDSLQGDSEVVEILSRMGMEILREGNKIKGITNGLNGTLIDASQCPDIIPVLSVVASLSIGKTTIINAGRLRIKECDRLHAINVELSKLGANIEEKEDSLIIEGVSKLNGGVEVWSHKDHRIAMTLAIASCRCDKPIILKDFECVSKSYPHFFKDFKMLGGRIDEWNMGK” as the sequence, how does the “soluble on expression in E. coli” value read?
The value was “not soluble”.

For “MSLIQLRPCPKSYTRDQDKATTPAETVRRVRERLASLDISILAETRRVDVGRLGIPVFLSVCGADARAVMPTRKQMGKGASLEQAQASALMELMERYSFFTFWRDMPGMVEATWSEARNRFGDALIPVDEILHSVHDTLSPDDAVRALDLWRWKFFPATDITHGREVWLPLDWFKKLGEFNGSSAGNTEEESILQGSCELVERHVCCLIDRTQPELPTIDPASLDDPVLLELAAAFERNGIRLVLKDFSMGMPVPTVGAIAWDPATFPERSEIVYTAGTSSSPVKAAIRAVTEVAQLAGDFCTGACYEASGLSKYESLDDIAWLVAGPVVALDTLPSVETDDIRDELAALCDGLAATGHTLYSVSTMNPDVGVNTHYNIVPGFHFRERDRNAEGHHHHHH”, which “soluble on expression in E. coli” value is on record?
Its value is “not soluble”.

For “MAGDPMKSSQYPAQDLKRRVLAWAVKLKVNPRAVRVQDMHRKWGSCSSTGTITLASDLLDQEQRFQDYVIVHELLHLRFATHGRMFKALMSAYVPGWRAMEGMGQHRICRKYRSTRSTVLEHHHHHH”, which “soluble on expression in E. coli” value is on record?
Its value is “not soluble”.

Which “soluble on expression in E. coli” value does the source give for “AVVFLWRNEEKWPAEFVSENVVKFGYTVEDFISGNFLYGDIIHPEDRNRVKEELKTRIRRGEVDFNTGYRIFTKAGDVRWVNERAFIQRNREGEITHIQGLVLDIT” here?
The value was “not soluble”.

With “MSLKDNEKYNALDFIKDDEINSLIAKGKELVSDKELVREIIEKSKSAEGLTPEETAVLLNLEDKELIEEMFKAARQVKEKLYGKRLVVFAPLYVSNYCVNNCTYCGYKHCNDELKRKKLNKEQLIEEVKVLESLGHKRIALEAGEDPVNAPLDYILDCIKSIYSIKFDNGSIRRINVNIAATSVEDYKRLKDAEIGTYILFQETYHKPTYERLHVSGPKHNYNYHTTAMHRAREAGIDDIGMGVLYGLYDYKYETLAMLMHAMDLEETTGVGPHTLSVPRIRPAENVSLENYPYLVDDEDFKKIVAILRLAVPYAGLILSTREEPGLRDEIIALGVSQVSTGSCTGVGGYSESYIDPEEKPQFEVGDHRSPVEMIESLMEAGYIPSYCTACYREGRTGERFMDIVKSGELYKICEANALITLKEFIDDYGTDRTREIGDKLIKKSIDEIDNESFRKSVEEKINKISNGTRDLRFEGHHHHHH” as the sequence, how does the “soluble on expression in E. coli” value read?
Its value is “soluble”.

With “MGSDKIHHHHHHMLNSMRINAFVKFQFPDDLLLNSNLVYGMVNGSTYEREIRDILGGREQAVKKYASKIPEKSDAIMSLIESPFYVTRSAGSFGADVIAIRHDFSMVIEVKSSVRPYLMFSEGSGKKQEQANRINEMCTKAGIFLTYAYRIKNVQGDPWKLFVVESKPIGRFSMVYELIPKIAKTREGNYIMKWEDGLPLSSFIEIINKKII” as the sequence, how does the “soluble on expression in E. coli” value read?
Its value is “not soluble”.

With “SAGTQLFRFREEPGPGGNRAVLEVRVPQVLHVQYGMYVWPCAVVLAQYLWFHRRSLPGKAVLEVGAGVSLPGILAAKCGAKVILSDSSEFPHCLDICRQSCQMNNLPQVEVVGLTWGHISKDILSLPPQDIILGSDVFFEPEDFESILATVYFLMQKNPKVQFWSTYQVRSADWSLEGLLYKWDMKCVHIPLESFDADKEDIAESTLPGRHTVEMLIISFAKDSF” as the sequence, how does the “soluble on expression in E. coli” value read?
Its value is “soluble”.
